Assay in all cases: SPR (Biacore); KD of H240-Kn061/H240-Hl071/L73-k0 divided by KD of the variant
Test [1] deals with T1, FcgRIIIa V (human, UniProt P08637 17-208).
T1 construct: extracellular domain; also called FcγRIIIa V; not shown: His tag attached to the C terminus
The procedure: (§1) The antibodies were assessed for the binding to each FcgR. […] The resultant value was defined as relative KD, and used as an assessment indicator.
(§2) Analysis of interaction between obj ective antibody and the FcγR was carried out using Biacore T100 (GE Healthcare), Biacore T200, Biacore A100, and Biacore 4000. HBS-EP+ (GE Healthcare) was used as the running buffer, and the measurement temperature was set to 25° C. Chips produced by immobilizing the antigen peptide by the amine coupling method to a Series S sensor Chip CM5 (GE Healthcare), chips produced by allowing preliminarily biotinylated antigen peptides to interact with and immobilize onto a Series S Sensor Chip SA (certified) (GE Healthcare), chips produced by immobilizing Protein L (ACTIGEN, BioVision) to Series S Sencor Chip CM5 (GE Healthcare), or chips produced by immobilizing Protein A/G (Thermo Scientific) to Series S Sencor Chip CM5 (GE Healthcare) were used. Antibodies of interest were captured onto these chips, and allowed to interact to each FcγR diluted with running buffer.

The target of test [2] is T2, FcgRIIIa F (human, UniProt P08637 17-208).
T2 construct: extracellular domain; also called FcγRIIIa F; 3aF; not shown: His tag attached to the C terminus
T2 sequence (P08637 17-208): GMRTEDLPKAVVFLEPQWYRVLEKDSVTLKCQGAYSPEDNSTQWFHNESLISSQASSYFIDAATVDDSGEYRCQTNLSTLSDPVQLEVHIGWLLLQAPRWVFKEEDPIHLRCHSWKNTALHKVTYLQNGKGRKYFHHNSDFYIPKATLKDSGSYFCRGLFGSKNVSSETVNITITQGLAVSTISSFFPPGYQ
The procedure: as §1, §2

The target in test [3] is T3, FcgRIIb (human, UniProt P31994 43-217).
T3 construct: extracellular domain; also called FcγRIIb; not shown: His tag attached to the C terminus
T3 sequence (looked up): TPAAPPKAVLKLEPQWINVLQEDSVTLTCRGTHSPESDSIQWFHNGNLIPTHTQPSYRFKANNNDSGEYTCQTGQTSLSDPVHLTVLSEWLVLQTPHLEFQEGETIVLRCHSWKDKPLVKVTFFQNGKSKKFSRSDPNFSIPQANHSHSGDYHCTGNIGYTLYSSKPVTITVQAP
The procedure:
as §1, §2

The source of these data is patent publication US20180155451A1 (published 2018).

T1 sequence (P08637 17-208 F176V limits assumed): as the sequence (P08637 17-208) above, with F160V counted along it

B1: H240-Kn061 (Y234H)/H240-Hl071/L73-k0 (antibody, human IgG1, kappa)
heavy 1: QDQLVQSGAEVKKPGASVKVSCKASGFNIKDTYIQWVRQAPGQGLEWMGRIDPLRKQTKYREKFEGRVTITADTSTNTAYMELSSLRSEDTAVYYCVRSGREFDYWGQGTLVTVSSASTKGPSVFPLAPSSKSTSGGTAALGCLVKDYFPEPVTVSWNSGALTSGVHTFPAVLQSSGLYSLSSVVTVPSSSLGTQTYICNVNHKPSNTKVDKKVEPKSCDKTHTCPPCPAPEHYWGPSVFLFPPKPKDTLMISRTPEVTCVVVDVSDEDPEVKFNWYVDGVEVHNAKTKPREEQYNATYRVVSVLTVLHQDWLNGKEYKCKVSNKALPAPIEKTISKAKGQPREPQVCTLPPSRDELTKNQVSLWCLVKGFYPSDIAVEWESNGQPENNYKTTPPVLDSDGSFFLYSKLTVDKSRWQQGNVFSCSVMHEALHNHYTQKSLSLSP
heavy 2: QDQLVQSGAEVKKPGASVKVSCKASGFNIKDTYIQWVRQAPGQGLEWMGRIDPLRKQTKYREKFEGRVTITADTSTNTAYMELSSLRSEDTAVYYCVRSGREFDYWGQGTLVTVSSASTKGPSVFPLAPSSKSTSGGTAALGCLVKDYFPEPVTVSWNSGALTSGVHTFPAVLQSSGLYSLSSVVTVPSSSLGTQTYICNVNHKPSNTKVDKKVEPKSCDKTHTCPPCPAPELLGGPSVFLFPPKPKDTLMISRTPEVTCVVVDVSHEDPEVKFNWYVDGVEVHNAKTKPREEQYNSTYRVVSVLTVLHQDWLNGKEYKCKVSNDALPMPIEETISKAKGQPREPQVYTLPPSRCELTKNQVSLSCAVKGFYPSDIAVEWESNGQPENNYKTTPPVLDSDGSFFLVSKLTVDKSRWQQGNVFSCSVMHEALHNHYTQKSLSLSP
light: DIQMTQSPSSLSASVGDRVTITCRASQDIHKYIAWYQQKPGQAPRLLIQYTSTLQPGVPSRFSGSGSGTDYTFTISSLQPEDIATYYCLQYEQLRTFGGGTKVEIKRTVAAPSVFIFPPSDEQLKSGTASVVCLLNNFYPREAKVQWKVDNALQSGNSQESVTEQDSKDSTYSLSSTLTLSKADYEKHKVYACEVTHQGLSSPVTKSFNRGEC
With B1, the figures for the “Relative KD” value in test [1], in test [2] and in test [3] were 0.9, 0.8 and 1.3, respectively.

B2: H240-Kn061 (Y235F)/H240-Hl071/L73-k0 (antibody, human IgG1, kappa)
heavy 1: QDQLVQSGAEVKKPGASVKVSCKASGFNIKDTYIQWVRQAPGQGLEWMGRIDPLRKQTKYREKFEGRVTITADTSTNTAYMELSSLRSEDTAVYYCVRSGREFDYWGQGTLVTVSSASTKGPSVFPLAPSSKSTSGGTAALGCLVKDYFPEPVTVSWNSGALTSGVHTFPAVLQSSGLYSLSSVVTVPSSSLGTQTYICNVNHKPSNTKVDKKVEPKSCDKTHTCPPCPAPEYFWGPSVFLFPPKPKDTLMISRTPEVTCVVVDVSDEDPEVKFNWYVDGVEVHNAKTKPREEQYNATYRVVSVLTVLHQDWLNGKEYKCKVSNKALPAPIEKTISKAKGQPREPQVCTLPPSRDELTKNQVSLWCLVKGFYPSDIAVEWESNGQPENNYKTTPPVLDSDGSFFLYSKLTVDKSRWQQGNVFSCSVMHEALHNHYTQKSLSLSP
heavy 2: QDQLVQSGAEVKKPGASVKVSCKASGFNIKDTYIQWVRQAPGQGLEWMGRIDPLRKQTKYREKFEGRVTITADTSTNTAYMELSSLRSEDTAVYYCVRSGREFDYWGQGTLVTVSSASTKGPSVFPLAPSSKSTSGGTAALGCLVKDYFPEPVTVSWNSGALTSGVHTFPAVLQSSGLYSLSSVVTVPSSSLGTQTYICNVNHKPSNTKVDKKVEPKSCDKTHTCPPCPAPELLGGPSVFLFPPKPKDTLMISRTPEVTCVVVDVSHEDPEVKFNWYVDGVEVHNAKTKPREEQYNSTYRVVSVLTVLHQDWLNGKEYKCKVSNDALPMPIEETISKAKGQPREPQVYTLPPSRCELTKNQVSLSCAVKGFYPSDIAVEWESNGQPENNYKTTPPVLDSDGSFFLVSKLTVDKSRWQQGNVFSCSVMHEALHNHYTQKSLSLSP
light: DIQMTQSPSSLSASVGDRVTITCRASQDIHKYIAWYQQKPGQAPRLLIQYTSTLQPGVPSRFSGSGSGTDYTFTISSLQPEDIATYYCLQYEQLRTFGGGTKVEIKRTVAAPSVFIFPPSDEQLKSGTASVVCLLNNFYPREAKVQWKVDNALQSGNSQESVTEQDSKDSTYSLSSTLTLSKADYEKHKVYACEVTHQGLSSPVTKSFNRGEC
For B2, the “Relative KD” value in test [1] came to 1.5; in test [2], 1.3; in test [3], 1.2.

B3: H240-Kn061 (Y234S)/H240-Hl071/L73-k0 (antibody, human IgG1, kappa)
heavy 1: QDQLVQSGAEVKKPGASVKVSCKASGFNIKDTYIQWVRQAPGQGLEWMGRIDPLRKQTKYREKFEGRVTITADTSTNTAYMELSSLRSEDTAVYYCVRSGREFDYWGQGTLVTVSSASTKGPSVFPLAPSSKSTSGGTAALGCLVKDYFPEPVTVSWNSGALTSGVHTFPAVLQSSGLYSLSSVVTVPSSSLGTQTYICNVNHKPSNTKVDKKVEPKSCDKTHTCPPCPAPESYWGPSVFLFPPKPKDTLMISRTPEVTCVVVDVSDEDPEVKFNWYVDGVEVHNAKTKPREEQYNATYRVVSVLTVLHQDWLNGKEYKCKVSNKALPAPIEKTISKAKGQPREPQVCTLPPSRDELTKNQVSLWCLVKGFYPSDIAVEWESNGQPENNYKTTPPVLDSDGSFFLYSKLTVDKSRWQQGNVFSCSVMHEALHNHYTQKSLSLSP
heavy 2: QDQLVQSGAEVKKPGASVKVSCKASGFNIKDTYIQWVRQAPGQGLEWMGRIDPLRKQTKYREKFEGRVTITADTSTNTAYMELSSLRSEDTAVYYCVRSGREFDYWGQGTLVTVSSASTKGPSVFPLAPSSKSTSGGTAALGCLVKDYFPEPVTVSWNSGALTSGVHTFPAVLQSSGLYSLSSVVTVPSSSLGTQTYICNVNHKPSNTKVDKKVEPKSCDKTHTCPPCPAPELLGGPSVFLFPPKPKDTLMISRTPEVTCVVVDVSHEDPEVKFNWYVDGVEVHNAKTKPREEQYNSTYRVVSVLTVLHQDWLNGKEYKCKVSNDALPMPIEETISKAKGQPREPQVYTLPPSRCELTKNQVSLSCAVKGFYPSDIAVEWESNGQPENNYKTTPPVLDSDGSFFLVSKLTVDKSRWQQGNVFSCSVMHEALHNHYTQKSLSLSP
light: DIQMTQSPSSLSASVGDRVTITCRASQDIHKYIAWYQQKPGQAPRLLIQYTSTLQPGVPSRFSGSGSGTDYTFTISSLQPEDIATYYCLQYEQLRTFGGGTKVEIKRTVAAPSVFIFPPSDEQLKSGTASVVCLLNNFYPREAKVQWKVDNALQSGNSQESVTEQDSKDSTYSLSSTLTLSKADYEKHKVYACEVTHQGLSSPVTKSFNRGEC
In the case of B3, the “Relative KD” value in test [1] stood at 0.9; in test [2], 0.9; in test [3] it was 1.

B4: H240-Kn061 (Y235E)/H240-Hl071/L73-k0 (antibody, human IgG1, kappa)
heavy 1: QDQLVQSGAEVKKPGASVKVSCKASGFNIKDTYIQWVRQAPGQGLEWMGRIDPLRKQTKYREKFEGRVTITADTSTNTAYMELSSLRSEDTAVYYCVRSGREFDYWGQGTLVTVSSASTKGPSVFPLAPSSKSTSGGTAALGCLVKDYFPEPVTVSWNSGALTSGVHTFPAVLQSSGLYSLSSVVTVPSSSLGTQTYICNVNHKPSNTKVDKKVEPKSCDKTHTCPPCPAPEYEWGPSVFLFPPKPKDTLMISRTPEVTCVVVDVSDEDPEVKFNWYVDGVEVHNAKTKPREEQYNATYRVVSVLTVLHQDWLNGKEYKCKVSNKALPAPIEKTISKAKGQPREPQVCTLPPSRDELTKNQVSLWCLVKGFYPSDIAVEWESNGQPENNYKTTPPVLDSDGSFFLYSKLTVDKSRWQQGNVFSCSVMHEALHNHYTQKSLSLSP
heavy 2: QDQLVQSGAEVKKPGASVKVSCKASGFNIKDTYIQWVRQAPGQGLEWMGRIDPLRKQTKYREKFEGRVTITADTSTNTAYMELSSLRSEDTAVYYCVRSGREFDYWGQGTLVTVSSASTKGPSVFPLAPSSKSTSGGTAALGCLVKDYFPEPVTVSWNSGALTSGVHTFPAVLQSSGLYSLSSVVTVPSSSLGTQTYICNVNHKPSNTKVDKKVEPKSCDKTHTCPPCPAPELLGGPSVFLFPPKPKDTLMISRTPEVTCVVVDVSHEDPEVKFNWYVDGVEVHNAKTKPREEQYNSTYRVVSVLTVLHQDWLNGKEYKCKVSNDALPMPIEETISKAKGQPREPQVYTLPPSRCELTKNQVSLSCAVKGFYPSDIAVEWESNGQPENNYKTTPPVLDSDGSFFLVSKLTVDKSRWQQGNVFSCSVMHEALHNHYTQKSLSLSP
light: DIQMTQSPSSLSASVGDRVTITCRASQDIHKYIAWYQQKPGQAPRLLIQYTSTLQPGVPSRFSGSGSGTDYTFTISSLQPEDIATYYCLQYEQLRTFGGGTKVEIKRTVAAPSVFIFPPSDEQLKSGTASVVCLLNNFYPREAKVQWKVDNALQSGNSQESVTEQDSKDSTYSLSSTLTLSKADYEKHKVYACEVTHQGLSSPVTKSFNRGEC
On to B4, for which the entries for the “Relative KD” value in test [1], in test [2] and in test [3] were 3.2, 2.2 and 0.8, respectively.
